Measured values reported in article PMC5983622, “New Insight into the Octamer of TYMS Stabilized by Intermolecular Cys43-Disulfide” (International Journal of Molecular Sciences, 2018).
Residue numbers refer to the chain shown, from its start.

B1: TYMS (Cys210Gly) (enzyme, human, UniProt P04818-1 1-313, looked up)
chain: MPVAGSELPRRPLPPAAQERDAEPRPPHGELQYLGQIQHILRCGVRKDDRTGTGTLSVFGMQARYSLRDEFPLLTTKRVFWKGVLEELLWFIKGSTNAKELSSKGVKIWDANGSRDFLDSLGFSTREEGDLGPVYGFQWRHFGAEYRDMESDYSGQGVDQLQRVIDTIKTNPDDRRIIMCAWNPRDLPLMALPPCHALCQFYVVNSELSGQLYQRSGDMGLGVPFNIASYALLTYMIAHITGLKPGDFIHTLGDAHIYLNHIEPLKIQLQREPRPFPKLRILRKVEKIDDFKAEDFQIEGYNPHPTIKMEMAV
notes: thymidylate synthase (TYMS), human, NM_001071.2, with Cys210Gly made by fusion PCR, in pET-28a(+); Same construct as m1 with the point mutation; source: expressed from pET-28a, purified (Ni-NTA twice); not shown: His6, N-terminal, kept
B2: TYMS (Cys180Gly) (enzyme, human, UniProt P04818-1 1-313, looked up)
chain: B1 chain with C180G, G210C
notes: thymidylate synthase (TYMS), human, NM_001071.2, with Cys180Gly made by fusion PCR, in pET-28a(+); Same construct as m1 with the point mutation; source: expressed from pET-28a, purified (Ni-NTA twice); not shown: His6, N-terminal, kept

Target: the molecule itself
Experiment: SDS-PAGE without reductant (Coomassie brilliant blue, Western blot); purified protein, serially diluted, incubated with loading buffer without beta-mercaptoethanol at 37 °C or 100 °C for 10 min; also with beta-mercaptoethanol at 100 °C (~280 kDa band disappeared, ~70 kDa band weakened); also after incubation with 2 mM dUMP and 2 mM mTHF (bands unchanged); anti-His-tag blot

Protein | binding result
B1 | binds
B2 | binds
